The source of these data is the supplement of paper PMC9170038.

In this data set the test system is MS2 coat protein. The experiment in a line: apparent KD of MS2 coat protein; designed switch direction (-1 OFF switch, 1 ON switch): 1; higher = weaker reporter binding. An outline of the steps: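 For each design, the apparent KD is the median over clusters of curves fitted to normalised cluster fluorescence. Clusters held RNA switches with common flanks, transcribed on Illumina chips by stalled E. coli RNA polymerase. These were titrated with SNAP-549-labelled MS2 coat protein, doubling from 0.7 or 1.5 nM to 3 µM, without input, with 200 uM small-molecule ligand, or with an oligonucleotide input.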

The mark [1] stands for this setting: Eterna round: R95, input ligand: FMN 200 uM.
Where [2] appears, read: Eterna round: R95, input ligand: microRNA oligo, concentration not stated.
The mark [3] stands for this setting: Eterna round: R95, input ligand: none.
Setting [4] is: input ligand: microRNA oligo, concentration not stated.

With “AGUCCAGCCUGAGCUGGACAAAAGCAUGUACAUGAGGAUCACCCAUGUCAUGUACAAGCUUUUAGCUCGUCUUAAAA [Mat - hsa-mir-208a - Mod of JL - D14] (puzzle: Sensor for hsa-mir-208a)”, the “apparent KD of MS2 coat protein” value under setting [1] was determined as 455 nM, the “apparent KD of MS2 coat protein” value under setting [2] came to 14.6 nM and the “apparent KD of MS2 coat protein” value under setting [3] was 501 nM.

As for “AGUCCAGCCUGAGCUGGACAAAAGCAUGUACAUGAGGAUCACCCAUGUCAUGUACAAGCUUUUUGCUCGUAUUAAAA [Mat - hsa-mir-208a - Mod of JL - D9] (puzzle: Sensor for hsa-mir-208a)”, the “apparent KD of MS2 coat protein” value reads like this: under setting [1], 362 nM; under setting [2], 15.4 nM; under setting [3], 574 nM.

For the sequence “AGUCCAGCCUGAGCUGGACAAAAGCAUGUACAUGAGGAUCACCCAUGUCAUGUACAAGCUUUUUGCUCGUCUAAAAG [Mat - hsa-mir-208a - Mod of JL - D7] (puzzle: Sensor for hsa-mir-208a)”, the “apparent KD of MS2 coat protein” value runs as follows: under setting [1], 272 nM; under setting [2], 17.6 nM; under setting [3], 406 nM.

With “AGUCCAGCCUGAGCUGGACAAAAGCAUGUACAUGAGGAUCACCCAUGUCAUGUACAAGCUUUUUGCUCGUCUUAAGA [Mat - hsa-mir-208a - Mod of JL - D21] (Eterna round: R96, puzzle: Sensor for hsa-mir-208a)”, the “apparent KD of MS2 coat protein” value is 806 nM (input ligand: FMN 200 uM), 16.2 nM under setting [4] and 840 nM (input ligand: none).

As for “AGUCCAGCCUGAGCUGGACAAAAGCAUGUACAUGAGGAUCACCCAUGUCAUGUACAAGCUUUUUGCUCGUCUUAAGA [Mat - hsa-mir-208a - Mod of JL - D21] (puzzle: Sensor for hsa-mir-208a)”, the “apparent KD of MS2 coat protein” value by setting is: under setting [1], 561 nM; under setting [2], 16.5 nM; under setting [3], 933 nM.

On to “AGUCCAGCCUGAGCUGGACAAAAGCAUGUACAUGAGGAUCACCCAUGUCAUGUACAAGCUUUUUGCUCGUCUUAUUA [Mat - hsa-mir-208a - Mod of JL - D24] (puzzle: Sensor for hsa-mir-208a)”, for which the “apparent KD of MS2 coat protein” value runs as follows: under setting [1], 694 nM; under setting [2], 16.3 nM; under setting [3], 722 nM.

Regarding “AGUCCAGCCUGAGCUGGACAAAAGCAUGUACAUGAGGAUCACCCAUGUUAUGUACAAGCUUUUUGCUCGUCUUAAUA [Zipper 49 - 10] (puzzle: Sensor for hsa-mir-208a)”, the “apparent KD of MS2 coat protein” value is 165 nM under setting [1], 14.3 nM under setting [2] and 238 nM under setting [3].

With “AGUCCAGCCUGAGCUGGACAAAAGCAUGUACAUGAGGAUCACCCAUGUUCAUGUACAAGCUUUUUGCUCGUAUUAAA [Mat - hsa-mir-208a - Mod of JL - 52] (puzzle: Sensor for hsa-mir-208a)”, the “apparent KD of MS2 coat protein” value is 555 nM under setting [1], 14.8 nM under setting [2] and 566 nM under setting [3].

As for “AGUCCAGCCUGAGCUGGACAAAAGCAUGUACAUGAGGAUCACCCAUGUUCAUGUACAAGCUUUUUGCUCGUCUUAAU [salish99_208a_r3_027] (puzzle: Sensor for hsa-mir-208a)”, the “apparent KD of MS2 coat protein” value under setting [1] was 480 nM, the “apparent KD of MS2 coat protein” value under setting [2] was determined as 14 nM and the “apparent KD of MS2 coat protein” value under setting [3] worked out at 643 nM.

For the sequence “AGUCCAGCCUGAGCUGGACAAAAGCAUGUACAUGAGGAUCACCCAUGUUCAUGUACAAGCUUUUUGCUCGUCUUAGA [salish99_208a_r3_059] (puzzle: Sensor for hsa-mir-208a)”, the “apparent KD of MS2 coat protein” value is, setting by setting: under setting [1], 709 nM; under setting [2], 15.4 nM; under setting [3], 732 nM.

For the sequence “AGUCCAGCCUGAGCUGGACAAAAGUAUGUACAUGAGGAUCACCCAUGUCAUGUACAAGCUUUUUGCUCGUCUUAAUA [Zipper 49 - 9] (puzzle: Sensor for hsa-mir-208a)”, the “apparent KD of MS2 coat protein” value worked out at 404 nM under setting [1], 24.1 nM under setting [2] and 511 nM under setting [3].

For the sequence “AGUCCAGCCUGAGCUGGACAAGAGCAUGUACAUGAGGAUCACCCAUGUUCAUGUACAAGCUUUUUGCUCGUCUUAAA [Zipper 52 - 2] (puzzle: Sensor for hsa-mir-208a)”, the “apparent KD of MS2 coat protein” value was determined as 399 nM under setting [1], 12.7 nM under setting [2] and 565 nM under setting [3].

With “AGUCCAGCCUGAGCUGGACAGAAGCAUGUACAUGAGGAUCACCCAUGUUCAUGUACAAGCUUUUUGCUCGUCUUAAA [Zipper 52 - 3] (puzzle: Sensor for hsa-mir-208a)”, the “apparent KD of MS2 coat protein” value reads like this: under setting [1], 480 nM; under setting [2], 14.2 nM; under setting [3], 436 nM.

Take “AGUCCAGCCUGAGCUGGACAUUAGCAUGUACAUGAGGAUCACCCAUGUCAUGUACAAGCUAUUUGCUCGUCUUAAAA [Mat - Sensor - JL mod - D76] (Eterna round: R96, puzzle: Sensor for hsa-mir-208a)”: the “apparent KD of MS2 coat protein” value stood at 592 nM (input ligand: FMN 200 uM), 15.7 nM under setting [4] and 455 nM (input ligand: none).

Turning to “AGUCCAGCGAAAGCUGGACAAAAGCAUGUACAUGAGGAUCACCCAUGUUCAUGUACAAGUUUUUUGCUCGUCUUAAA [JL mod - D95 - 13] (puzzle: Sensor for hsa-mir-208a)”, the “apparent KD of MS2 coat protein” value reads like this: under setting [1], 33.7 nM; under setting [2], 10.4 nM; under setting [3], 32 nM.

With “AGUCCAGCGAAAGCUGGACAAGAGCAUGUACAUGAGGAUCACCCAUGUUCAUGUACAAGCUUUUUGCUCGUCUUAAA [JL mod - D95 - 2] (puzzle: Sensor for hsa-mir-208a)”, the “apparent KD of MS2 coat protein” value is 384 nM under setting [1], 14.3 nM under setting [2] and 439 nM under setting [3].

On to “AGUCCGGCCUGAGCUGGACUGAAGCAUGUACAUGAGGAUCACCCAUGUUCAUGUGCAGGCUUUUUGCUCGUCUUGUG [JL-shm-2.04 JL mod] (Eterna round: R96, puzzle: Sensor for hsa-mir-208a)”, for which the “apparent KD of MS2 coat protein” value came to 115 nM (input ligand: FMN 200 uM), 12.6 nM under setting [4] and 103 nM (input ligand: none).

On to “AGUCCGGCCUGAGCUGGACUGAAGCAUGUACAUGAGGAUCACCCAUGUUCAUGUGCAGGCUUUUUGCUCGUCUUGUG [JL-shm-2.04 JL mod] (puzzle: Sensor for hsa-mir-208a)”, for which the “apparent KD of MS2 coat protein” value worked out at 97.7 nM under setting [1], 13.4 nM under setting [2] and 124 nM under setting [3].

Consider “AGUCCUGAAAAGAAAAUACAGAGAUAUGUACAUGAGGAUCACCCAUGUCAUGUACAAGUUCUAUGCUCGUCAUAUAA [Sensorship 21 - Jieux - Sensor for hsa-mir-208a] (puzzle: Sensor for hsa-mir-208a)”, for which the “apparent KD of MS2 coat protein” value stood at 202 nM under setting [1], 63.6 nM under setting [2] and 262 nM under setting [3].

Consider “AGUGGACAUGAGGAUCACCCAUGUAUGCUGGCAUGAGGAUAUCCGAUUCGUUUCGACUAAGGAGAAGGCAUAGCCC [Geonla] (Eterna round: R96, puzzle: Same State 1)”, for which the “apparent KD of MS2 coat protein” value was 37 nM (input ligand: FMN 200 uM), 98.9 nM under setting [4] and 116 nM (input ligand: none).
